{"source": "patent US12007398", "binders": {"B1": {"name": "purified anti-CD3 homodimer (product-related impurity isolated from the αCD20/αCD3 TDB purification process) (antibody, V domains shown)", "VH": "EVQLVQSGAEVKKPGASVKVSCKASGYTFTNYYIHWVRQAPGQGLEWIGWIYPGDGNTKYNEKFKGRATLTADTSTSTAYLELSSLRSEDTAVYYCARDSYSNYYFDYWGQGTLVTVSS", "VL": "DIVMTQSPDSLAVSLGERATINCKSSQSLLNSRTRKNYLAWYQQKPGQPPKLLIYWASTRESGVPDRFSGSGSGTDFTLTISSLQAEDVAVYYCTQSFILRTFGQGTKVEIK"}, "B2": {"name": "αCD20/αCD3 TDB (T cell dependent bispecific antibody; anti-CD20 Mab2 / anti-CD3 Mab1) (bispecific antibody, V domains shown)", "VH 1": "EVQLVESGGGLVQPGGSLRLSCAASGYTFTSYNMHWVRQAPGKGLEWVGAIYPGNGDTSYNQKFKGRFTISVDKSKNTLYLQMNSLRAEDTAVYYCARVVYYSNSYWYFDVWGQGTLVTVSS", "VL 1": "DIQMTQSPSSLSASVGDRVTITCRASSSVSYMHWYQQKPGKAPKPLIYAPSNLASGVPSRFSGSGSGTDFTLTISSLQPEDFATYYCQQWSFNPPTFGQGTKVEIKR", "VH 2": "EVQLVQSGAEVKKPGASVKVSCKASGYTFTNYYIHWVRQAPGQGLEWIGWIYPGDGNTKYNEKFKGRATLTADTSTSTAYLELSSLRSEDTAVYYCARDSYSNYYFDYWGQGTLVTVSS", "VL 2": "DIVMTQSPDSLAVSLGERATINCKSSQSLLNSRTRKNYLAWYQQKPGQPPKLLIYWASTRESGVPDRFSGSGSGTDFTLTISSLQAEDVAVYYCTQSFILRTFGQGTKVEIK"}}, "key": {"[1]": {"molecular_target": "T1, CD3e subunit of the T cell receptor on human T cells (human, UniProt P07766 23-207)", "T1 sequence (P07766 23-207)": "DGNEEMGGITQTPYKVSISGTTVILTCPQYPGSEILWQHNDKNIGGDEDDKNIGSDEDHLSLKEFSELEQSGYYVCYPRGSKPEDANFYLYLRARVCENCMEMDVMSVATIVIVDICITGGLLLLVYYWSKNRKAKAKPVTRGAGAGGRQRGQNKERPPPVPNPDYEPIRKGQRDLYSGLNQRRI", "assay": "cell-based or functional assay"}, "[2]": {"molecular_target": "T1, CD3e subunit of the T cell receptor on …", "assay": "cell-based or functional assay", "remark": "listed apart in the source"}}}
{"binder": "B1", "values": [{"measurement": "EC50 of NFκB-luciferase reporter activation, Jurkat/NFκBLuc cells; in absence of target cells", "setting": "[1]", "value": 0.21, "unit": "mg/L"}, {"measurement": "EC50 of T cell activation (CD69+/CD25+), human PBMC Donor 1; column head: in absence of target cells", "setting": "[1]", "value": 0.526, "unit": "mg/L"}, {"measurement": "EC50 of T cell activation (CD69+/CD25+), human PBMC Donor 2; column head: in absence of target cells", "setting": "[1]", "value": 0.169, "unit": "mg/L"}]}
{"binder": "B2", "values": [{"measurement": "EC50 of NFκB-luciferase reporter activation, Jurkat/NFκBLuc cells; in presence of target cells", "setting": "[1]", "value": 0.0013, "unit": "mg/L"}, {"measurement": "EC50 of T cell activation (CD69+/CD25+), human PBMC Donor 1; in presence of target cells", "setting": "[1]", "value": 0.0055, "unit": "mg/L"}, {"measurement": "EC50 of T cell activation (CD69+/CD25+), human PBMC Donor 2; in presence of target cells", "setting": "[1]", "value": 0.0044, "unit": "mg/L"}, {"measurement": "luciferase activity of Jurkat/NFκBLuciferase clone 2 in the presence of a CD20 expressing target cell line, relative to anti-CD3 homodimer", "setting": "[2]", "value": 1000, "unit": "fold"}]}
